The subject of series [1] is PilJ soluble domain (Clostridioides difficile R20291?). Briefly: EMSA. The settings on record: 25C: 10 ng DNA in 10 ul, 10 mM Tris-HCl pH 8.5, 50 mM NaCl, 1 mg/ml BSA, 30 min, 1.5% agarose; 4C: 500 ng DNA in 10 ul, 20 mM Tris-HCl pH 8.3, 100 mM NaCl …. In general terms: In EMSA bound probe runs differently from free probe, usually more slowly.
The test system of series [2] is PilW soluble domain (Clostridioides difficile R20291?). Briefly: EMSA. Particulars: 25C: 10 ng DNA in 10 ul, 10 mM Tris-HCl pH 8.5, 50 mM NaCl, 1 mg/ml BSA, 30 min, 1.5% agarose; 4C: 500 ng DNA in 10 ul, 20 mM Tris-HCl pH 8.3, 100 mM NaCl ….

Turning to plasmid DNA (25C EMSA), the Kd (as a rule, a measure of binding affinity in units of concentration) in series [1] came out at 2.2 µM; in series [2], 14.5 µM.

Values taken from article PMC9556784.
